# Test results published in article PMC3835959 (Cell reports, 2013).
# B1: CesAB–EspA heterodimeric chaperone–substrate complex (complex)
# chain 1: MSIVSQTRNKELLDKKIRSEIEAIKKIIAEFDVVKESVNELSEKAKTDPQAAEKLNKLIEGYTYGEERKLYDSALSKIEKLIETLSPARSKSQSTMNQRNRNNRKIV
# chain 2: MDTSTTASVASANASTSTSMAYDLGSMSKDDVIDLFNKLGVFQAAILMFAYMYQAQSDLSIAKFADMNEASKESTTAQKMANLVDAKIADVQSSSDKNAKAQLPDEVISYINDPRNDITISGIDNINAQLGAGDLQTVKAAISAKANNLTTTVNNSQLEIQQMSNTLNLLTSARSDMQSLQYRTISGISLGK
# B2: CesAB^Y64A/R68A–EspA complex (complex)
# chain 1: MSIVSQTRNKELLDKKIRSEIEAIKKIIAEFDVVKESVNELSEKAKTDPQAAEKLNKLIEGYTAGEEAKLYDSALSKIEKLIETLSPARSKSQSTMNQRNRNNRKIV
# chain 2: MDTSTTASVASANASTSTSMAYDLGSMSKDDVIDLFNKLGVFQAAILMFAYMYQAQSDLSIAKFADMNEASKESTTAQKMANLVDAKIADVQSSSDKNAKAQLPDEVISYINDPRNDITISGIDNINAQLGAGDLQTVKAAISAKANNLTTTVNNSQLEIQQMSNTLNLLTSARSDMQSLQYRTISGISLGK
# B3: EscN ATPase, full-length, hexameric (enzyme)
# chain: MISEHDSVLEKYPRIQKVLNSTVPALSLNSSTRYEGKIINIGGTIIKARLPKARIGAFYKIEPSQRLAEVIAIDEDEVFLLPFEHVSGMYCGQWLSYQGDEFKIRVGDALLGRLIDGIGRPMESNIVAPYLPFERSLYAEPPDPLLRQVIDQPFILGVRAIDGLLTCGIGQRIGIFAGSGVGKSTLLGMICNGASADIIVLALIGERGREVNEFLALLPQSTLSKCVLVVTTSDRPALERMKAAFTATTIAEYFRDQGKNVLLMMDSVTRYARAARDVGLASGEPDVRGGFPPSVFSSLPKLLERAGPAPKGSITAIYTVLLESDNVNDPIGDEVRSILDGHIVLTRELAEENHFPAIDIGLSASRVMHNVVTSEHLRAAAECKKLIATYKNVELLIRIGEYTMGQDPEADKAIKNRKLIQNFIQQSTKDISSYEKTIESLFKVVA
# Tests used:
# [1] = target: B3; test: NMR titration
# [2] = target: the molecule itself
Binder,Kd [1] [nM],stoichiometry N [2]
B1,~3000,–
B2,> 80000,–
B3,–,6
